Six compounds from patent publication US12384811B2, “Sialidase-resistant saccharide and method of making and using the same” (Academia Sinica, priority 2019, dated 2025) can be followed below.

Test [1] addresses T1, sialidase from Vibrio cholerae (Vibrio cholerae serotype O1, UniProt P0C6E9).
T1 construct: purchased Sigma Aldrich 11080725001
The class given is biochemical.

Test [2] has as its system sialidase from Clostridium perfringens. The class given is biochemical. To be noted: C. perfringens sialidase, substrate Neu5Ac-α2,6-GalβpNP 0.6 mM, inhibitor 0-20 mM (FIG. 1B).
The target of the next test is T2, FcγRIIIa (Homo sapiens, UniProt P08637).
T2 construct: made in house; host or cells: HEK-293
As to the kind of experiment: Surface plasmon resonance (SPR) analysis of binding avidity of glycoengineered Rituximab IgG1. To be noted: for Rmax / Kd / ka / kd / improvement in binding avidity to FcγRIIIa compared to the commercial sample of rituximab: SPR; for Rmax / Kd / ka / kd: BIACORE T200, 25° C.; for Kd / ka / kd: single cycle kinetic, 1:1 Langmuir model; for Fold: binding avidity relative to commercial Rituximab. As to the method:
All the SPR experiments were performed with the single cycle kinetic method by BIACORE T200 at 25° C. using HBS-EP (10 mM HEPES pH7.4, 0.15M NaCl, 3mMEDTA, 0.005% surfactant P20) as running buffer. FcγRIIIa was transfected into HEK-293 cells to express the complex-type glycosylated recombinant protein as analyte. For the analysis of Rituximabs binding to FcγRIIIa receptor, antihuman Fab antibodies in human Fab capture kit (GE Healthcare) were immobilized onto both the reference and active channels of CM5 sensor chip, and then Rituximabs were captured on the active channel for interacting with the serial dilutions of FcγRIIIa analyte (2.5, 5, 10, 20, 40 nM for 2,6-FluoSCT and 2,6-SCT; 8, 24, 72, 216, 648 nM for the commercial Rituximabs) at 30 μl/min for association of 240 seconds followed by dissociation time of 420 seconds. Rituximab data were processed with double referencing for background subtraction. Data of Rituximabs was fitted to 1:1 Langmuir binding model in BiaEvaluation software (GE Healthcare) to obtain the kinetic/affinity constants (Table 4). Analyzed antibodies were captured by the Human Fab capture kit and detected with the single cycle kinetic method.

Test [3] has as its target T1, sialidase from Vibrio cholerae. The format is biochemical. To be noted: pH 5.5.
Test [4] deals with sialidase from Clostridium perfringens. The class given is biochemical. To be noted: C. perfringens sialidase, 37° C., pH 5.0, substrate 0-20 mM, β-galactosidase, A405 nm (FIG. 1A).

T2 sequence (P08637 17-254): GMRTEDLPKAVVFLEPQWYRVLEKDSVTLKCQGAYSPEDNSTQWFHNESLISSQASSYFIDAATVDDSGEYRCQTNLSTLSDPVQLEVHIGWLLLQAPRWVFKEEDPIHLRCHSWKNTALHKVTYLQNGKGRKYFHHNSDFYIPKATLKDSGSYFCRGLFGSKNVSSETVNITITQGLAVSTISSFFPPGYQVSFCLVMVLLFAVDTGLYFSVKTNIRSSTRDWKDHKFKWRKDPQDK
T1 sequence (P0C6E9 25-781): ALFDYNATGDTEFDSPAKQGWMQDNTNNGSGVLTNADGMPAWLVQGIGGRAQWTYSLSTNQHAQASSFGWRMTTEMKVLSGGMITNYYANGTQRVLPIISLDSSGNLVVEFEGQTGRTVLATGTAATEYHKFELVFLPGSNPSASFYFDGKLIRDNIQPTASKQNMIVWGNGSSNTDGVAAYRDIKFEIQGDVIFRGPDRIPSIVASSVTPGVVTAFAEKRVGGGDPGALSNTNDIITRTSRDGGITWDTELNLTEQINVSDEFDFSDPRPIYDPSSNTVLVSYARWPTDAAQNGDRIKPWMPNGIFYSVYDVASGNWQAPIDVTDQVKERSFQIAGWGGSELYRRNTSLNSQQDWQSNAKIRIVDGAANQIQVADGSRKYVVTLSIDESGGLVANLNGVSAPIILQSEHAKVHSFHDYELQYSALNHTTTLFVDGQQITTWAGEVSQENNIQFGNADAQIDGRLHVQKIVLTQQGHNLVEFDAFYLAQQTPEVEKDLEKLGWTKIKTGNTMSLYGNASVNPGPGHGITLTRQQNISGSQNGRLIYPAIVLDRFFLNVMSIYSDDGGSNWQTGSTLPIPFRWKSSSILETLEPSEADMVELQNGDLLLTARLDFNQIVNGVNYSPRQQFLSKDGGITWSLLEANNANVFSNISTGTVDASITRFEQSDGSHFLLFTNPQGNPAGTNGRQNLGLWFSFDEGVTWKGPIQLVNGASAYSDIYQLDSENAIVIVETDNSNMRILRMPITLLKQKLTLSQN

`CC(=O)N[C@H]1[C@H]([C@H](O)[C@H](O)CO)OC(C(=O)O)=C[C@@H]1O` [DANA, 2-deoxy-2,3-didehydro-N-acetylneuraminic acid]: the “inhibition of the hydrolysis of 1” value in test [1] and in test [2] was “inhibit the hydrolysis of 1” throughout.

As for “Rituximab: commercial sample of rituximab (Rituxan, Roche; major glycoforms: G1F1, G0F1, G2F1)”, in the test with FcγRIIIa, the Rmax amounted to 32.33 RU, the Kd turned out to be 306 nM, the ka was 231000 M⁻¹ s⁻¹ and the kd was 0.07054 s⁻¹. Also, in the test with FcγRIIIa, the Fold is reported as 1-fold.

With “2,6-SCT: parent nonfluorinated homogeneous rituximab glycoform (G2S2), α2,6-sialylated biantennary N-glycan without core fucose”, in the test with FcγRIIIa, the “improvement in binding avidity to FcγRIIIa compared to the commercial sample of rituximab” value worked out at 39.9 fold, the Rmax was 60.64 RU, the Kd was 7.67 nM and the ka stood at 268000 M⁻¹ s⁻¹. Moreover, in the test with FcγRIIIa, the kd is 0.002059 s⁻¹ and the Fold is 39.9-fold.

As for “2,6-F^axSCT: homogeneous rituximab IgG1 glycoform without core fucose bearing the 3F^ax-Neu5Ac-terminated α2,6-sialylated biantennary N-glycan”, in the test with FcγRIIIa, the “improvement in binding avidity to FcγRIIIa compared to the commercial sample of rituximab” value is 37.4 fold, the Rmax worked out at 71.28 RU, the Kd was determined as 8.18 nM and the ka was found to be 244000 M⁻¹ s⁻¹. Moreover, in the test with FcγRIIIa, the kd is 0.001996 s⁻¹ and the Fold was 37.4-fold.

Take `CC(=O)N[C@H]1[C@H]([C@H](O)[C@H](O)CO)OC(OC[C@H]2O[C@@H](Oc3ccc([N+](=O)[O-])cc3)[C@H](O)[C@@H](O)[C@H]2O)(C(=O)O)C[C@@H]1O` (stereo partly drawn) [Compound 1, p-Nitrophenyl [5-acetamido-5-deoxy-D-glycero-α-D-galacto-non-2-ulopyranosylonate]-(2→6)-β-D-galactopyranoside]: the “hydrolytic activity of the sialidase toward the substrate” value in test [3] is on record as “expected hydrolytic activity”.

“p-Nitrophenyl [methyl 5-acetamido-3,5-dideoxy-3-fluoro-D-erythro-α-L-manno-non-2-ulopyranosonate]-(2→6)-β-D-galactopyranoside [Compound 2]”: the “hydrolytic activity of the sialidase toward the substrate” value in test [3] and in test [4] was “inactive” in each case. Besides, the “inhibition of the hydrolysis of 1” value in test [1] and in test [2] was “did not significantly inhibit” throughout.
